Measurements reported in US20190309066A1, “COMBINATION THERAPY FOR THE TREATMENT OF SOLID AND HEMATOLOGICAL CANCERS” (Arch Oncology, Inc., priority 2017, published 2019).

Columns and labels:
[1] = tested on: Jurkat cells; assay: In vitro cell death assay (annexin V / 7-AAD); format: cell-based, human; details: 1 μg/ml soluble mAb, 24 hrs
Experimental: Induction of cell death by soluble anti-CD47 mAbs is measured in vitro (Manna et al. (2003) J. Immunol. […] (7): 3544-53, Kikuchi et al. Biochem Biophys Res. Commun. 315: 912-8, 2004), Pettersen et al. J. Immuno. 162: 7031-7040, 1999), Manna et al. Cancer Research, 64: 1026-1036, 2004). For the in vitro cell death assay, 1×10^5 transformed human T cells (Jurkat cells) were incubated with soluble humanized VLX4, VLX8, and VLX9 CD47 mAbs (1 μg/ml) for 24 hrs at 37° C. As cell death occurs, mitochondrial membrane potential is decreased, the inner leaflet of the cell membrane is inverted, exposing phosphatidylserines (PS), and propidium iodide (PI) or 7-aminoactinomycin D (7-AAD) is able to incorporate into nuclear DNA. In order to detect these cellular changes, cells were then stained with fluorescently labelled annexin V and PI or 7-aminoactinomycin D (7-AAD) (BD Biosciences) and the signal detected using an Accuri C6 flow cytometer (BD Biosciences). The increase in PS exposure is determined by measuring the percent increase in annexin V signal and the percent of dead cells by measuring the percent increase in PI or 7-AAD signal. Annexin V positive (annexin V+) or annexin V positive/7-AAD negative (annexin V^+/7-AAD^−) cells are observed in early stages of cell death and annexin V positive/7-AAD positive (annexin V^+/7-AAD^+) cells are dead cells. […]

[2] = tested on: human red blood cells (hRBCs); assay: Hemagglutination of washed hRBCs; format: cell-based; details: mAb concentrations 50 μg/ml down to 0.3 ng/ml or 0.3 pg/ml
Experimental: Hemagglutination of hRBCs was assessed following incubation of hRBCs with various concentrations of chimeric and humanized VLX4, VLX8, and VLX9 mAbs in vitro essentially as described by Kikuchi et al. Biochem Biophys Res. Commun (2004) 315:912-918. Blood was obtained from healthy donors, diluted (1:50) in PBS/1 mM EDTA/BSA and washed 3 times with PBS/EDTA/BSA. hRBCs were added to U-bottomed 96 well plates with equal volumes of the antibodies (75 μl of each) and incubated for 3 hrs at 37° C. and overnight at 4° C.

[3] = target: T1, recombinant human CD47 (His-CD47) (Homo sapiens, UniProt Q08722); assay: Solid-phase His-CD47 ELISA at pH 6 or pH 8; format: binding; details: pH 6.0 vs pH 8.0
T1 construct: His; purchased Acro Biosystems
Experimental: Binding by soluble anti-CD47 mAbs to immobilized recombinant human CD47 and to human CD47 expressed on cells was measured in vitro. For the in vitro binding to recombinant CD47, His-CD47 (AcroBiosystems) was adsorbed to high-binding microtiter plates overnight at 4° C. The wells were washed and varying concentrations of anti-CD47 mAbs were added to the wells in buffers with a of either pH 6 or pH 8 for 1 hour. The wells were washed and then incubated with HRP-labelled secondary antibody for 1 hour at pH 6 or pH 8 followed by addition of peroxidase substrate. The apparent affinities were calculated using non-linear fit model (Graphpad Prism).

T1 sequence (Q08722 19-323): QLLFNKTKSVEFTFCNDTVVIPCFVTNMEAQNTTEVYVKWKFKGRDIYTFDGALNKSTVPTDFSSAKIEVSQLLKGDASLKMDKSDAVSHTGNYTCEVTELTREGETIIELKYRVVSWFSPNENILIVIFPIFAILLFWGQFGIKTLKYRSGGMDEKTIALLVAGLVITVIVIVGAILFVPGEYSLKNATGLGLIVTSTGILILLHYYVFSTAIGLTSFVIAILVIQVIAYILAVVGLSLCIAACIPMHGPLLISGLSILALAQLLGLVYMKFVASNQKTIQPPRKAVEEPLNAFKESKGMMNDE

| pH dependence of binding to His-CD47 [3] | Molecule | PS exposure and cell death (annexin V+, annexin V+/7-AAD−, annexin V+/7-AAD+) [1] | hemagglutination of hRBCs (in words) [2] |
| --- | --- | --- | --- |
| – | VLX9 IgG2 (xi): chimeric (murine-human) anti-CD47 mAb, human IgG2 (antibody) heavy: QVQLQQFGAELAKPGASVQMSCKASGYTFTNYWIHWVKQRPGQGLEWIGYTDPRTDYTEYNQKFKDKATLAADRSSSTAYMRLSSLTSEDSAVYYCAGGGRVGLGYWGHGSSVTVSSASTKGPSVFPLAPCSRSTSESTAALGCLVKDYFPEPVTVSWNSGALTSGVHTFPAVLQSSGLYSLSSVVTVPSSNFGTQTYTCNVDHKPSNTKVDKTVERKCCVECPPCPAPPVAGPSVFLFPPKPKDTLMISRTPEVTCVVVDVSHEDPEVQFNWYVDGVEVHNAKTKPREEQFNSTFRVVSVLTVVHQDWLNGKEYKCKVSNKGLPAPIEKTISKTKGQPREPQVYTLPPSREEMTKNQVSLTCLVKGFYPSDIAVEWESNGQPENNYKTTPPMLDSDGSFFLYSKLTVDKSRWQQGNVFSCSVMHEALHNHYTQKSLSLSPGK light: DVFMTQTPLSLPVSLGDQASISCRSSQNIVQSNGNTYLEWYLQKPGQSPKLLIYKVFHRFSGVPDRFSGSGSGTDFTLKISRVEAEDLGVYYCFQGSHVPWTFGGGTKVEIKRTVAAPSVFIFPPSDEQLKSGTASVVCLLNNFYPREAKVQWKVDNALQSGNSQESVTEQDSKDSTYSLSSTLTLSKADYEKHKVYACEVTHQGLSSPVTKSFNRGEC | induced increased PS exposure and cell death | caused visible hemagglutination |
| did not display pH dependence | VLX9 IgG (murine): murine VLX9 anti-CD47 antibody (antibody, V domains shown) VH: QVQLQQFGAELAKPGASVQMSCKASGYTFTNYWIHWVKQRPGQGLEWIGYTDPRTDYTEYNQKFKDKATLAADRSSSTAYMRLSSLTSEDSAVYYCAGGGRVGLGYWGHGSSVTVSS VL: DVFMTQTPLSLPVSLGDQASISCRSSQNIVQSNGNTYLEWYLQKPGQSPKLLIYKVFHRFSGVPDRFSGSGSGTDFTLKISRVEAEDLGVYYCFQGSHVPWTFGGGTKVEIK | – | – |
